Experimental data reported in patent US10705076.

Assays:
[1] = target: HLA class II antigens (HLA-DR, HLA-DQ and HLA-DP); assay: Luminex dose/response, mean over 5 class II bead types, antibody 2 × 10^-3 µg/ml; SD 72.15
[2] = target: HLA class II antigens (HLA-DR, HLA-DQ and HLA-DP); assay: Luminex, each Labscreen Mixed class II bead type, antibody at 2 µg/ml; SD approximately 700
[3] = target: HLA class II antigens (HLA-DR, HLA-DQ and HLA-DP); assay: Luminex dose/response, mean over 5 class II bead types, antibody 7.8 × 10^-3 µg/ml; SD 145.09
[4] = target: HLA class II antigens (HLA-DR, HLA-DQ and HLA-DP); assay: Luminex dose/response, mean over 5 class II bead types, antibody 2 × 10^0 µg/ml; SD 167
[5] = target: HLA class II antigens (HLA-DR, HLA-DQ and HLA-DP); assay: Luminex dose/response, mean over 5 class II bead types, antibody 5 × 10^-1 µg/ml; SD 160.45
[6] = target: HLA class II antigens (HLA-DR, HLA-DQ and HLA-DP); assay: Luminex titration on Labscreen Mixed class II beads; concentration at 50% of (MAX - MIN)
[7] = target: HLA class II antigens (HLA-DR, HLA-DQ and HLA-DP); assay: Boltzmann sigmoid fit of the Luminex titration curve, upper asymptote
[8] = target: HLA class II antigens (HLA-DR, HLA-DQ and HLA-DP); assay: Luminex dose/response, mean over 5 class II bead types, antibody 5 × 10^-4 µg/ml; SD 29.6
[9] = target: HLA class II antigens (HLA-DR, HLA-DQ and HLA-DP); assay: Luminex dose/response, mean over 5 class II bead types, antibody 3.13 × 10^-2 µg/ml; SD 273.56
[10] = target: HLA class II antigens (HLA-DR, HLA-DQ and HLA-DP); assay: Boltzmann sigmoid fit of the Luminex titration curve, lower asymptote
[11] = target: HLA class II antigens (HLA-DR, HLA-DQ and HLA-DP); assay: Luminex dose/response, mean over 5 class II bead types; SD 298.79

- Average (fluorescence intensity) (fluorescence units) [1]: 1090
- fluorescence (average fluorescence units) [2]: 22000
- Average (fluorescence intensity) (fluorescence units) [3]: 3520
- Average (fluorescence intensity) (fluorescence units) [4]: 23600
- Average (fluorescence intensity) (fluorescence units) [5]: 22800
- EC50 [6]: 0.05 µg/mL
- MAX (fluorescence units) [7]: 24600
- Average (fluorescence intensity) (fluorescence units) [8]: 316
- Average (fluorescence intensity) (fluorescence units) [9]: 9130
- MIN (fluorescence units) [10]: 88
- Average (fluorescence intensity) (fluorescence units) [11]: 18000
B1: monoclonal chimeric immunoglobulin Hu-IgG1 K [F3.3] (antibody, V domains shown)
VH: EVKLEESGGGLVQPGGSMKLSCVASGFTFSNSWMNWVRQSPEKGLEWVAEIRLKSNNYATRYAESVKGRFTISRDDSKSSVYLQMNNLRSEDTAIYYCTPLSYSFDYWGQGTTVTVST
VL: QIVLTQSPAIMSASPGEKVTMTCSASSIVRYMYWFQQKPGSSPRLLIYDTSSLSSGVPVRFSGSGSGTSYSLTISRMEAEDAATYFCQQWSSYPLTFGGGTKLEIKR
